In paper PMC4315436:

Target: LGF2
Assay: two-hybrid; BacterioMatch II bacterial two-hybrid in E. coli reporter cells; bait in pBT as λcI fusion, prey in pTRG as RNAPα fusion; 30 ng each of bait and prey vector; HIS3 reporter, cfu on selective screening medium with 3-AT; three repeats, mean ± 1 SD

cfu on selective screening medium (with 3-AT): 1000 cfu
Substance: Gal11^P (domain or fragment)
